Data published in publication PMC13001094, “Cargo Recognition of Nesprin‑2 by the Dynein Adapter Bicaudal D2 for a Nuclear Positioning Pathway That Is Important for Brain Development” (Biochemistry, 2026).
One block for each molecule: values may come before it.

Tests used:
[1] = molecular target: Cytoplasmic dynein (bovine); experiment: two-colour single-molecule assay (TIRF) of reconstituted complexes on microtubules; BicD2, instead of Nesprin-2, labelled with two different colours in DDBN complexes
[2] = molecular target: T1, GST-tagged mouse Nesprin-2 (aa 6123–6421) (mouse, UniProt Q6ZWQ0 6123-6421); experiment: pull-down; GST-tagged Nesprin-1/2 fragment held on glutathione column (not eluted), incubated 30 min with Ni-NTA-purified His6-BicD2-CTD diluted to 125 mM NaCl; washed twice; eluted with 10 mM glutathione, 50 mM Tris pH 8.0, 150 mM NaCl, 1 mM DTT; SDS-PAGE, Coomassie; band ratio normalised to WT = 1; settings: both partners purified
T1 construct: pGEX6p1 vector; codon-optimised insert from Genscript; also called Nesprin-2-SR52-SR53AD; minimal Nesprin-2 fragment; source: E. coli BL21(DE3)-RIL, purified on glutathione resin (not eluted before the pull-down); not shown: GST, N-terminal, kept
T1 sequence (looked up): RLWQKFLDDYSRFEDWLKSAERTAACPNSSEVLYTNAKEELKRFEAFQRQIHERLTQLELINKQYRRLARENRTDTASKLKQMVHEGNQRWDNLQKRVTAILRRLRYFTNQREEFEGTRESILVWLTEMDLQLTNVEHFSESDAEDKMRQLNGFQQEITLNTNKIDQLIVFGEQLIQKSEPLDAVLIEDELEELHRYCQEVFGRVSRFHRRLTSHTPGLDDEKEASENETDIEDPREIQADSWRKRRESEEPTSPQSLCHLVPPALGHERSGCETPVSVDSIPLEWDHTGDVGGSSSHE

[3] = molecular target: T2, GST-tagged Nesprin-2 (aa 6123–6340) (mouse, UniProt Q6ZWQ0 6123-6340); experiment: as above; settings: both partners purified
T2 construct: lacks the entire intrinsically disordered domain with the LEWD motif; deletion construct of m1; source: E. coli BL21(DE3)-RIL, purified on glutathione resin (not eluted before the pull-down); not shown: GST, N-terminal, kept
T2 sequence (looked up): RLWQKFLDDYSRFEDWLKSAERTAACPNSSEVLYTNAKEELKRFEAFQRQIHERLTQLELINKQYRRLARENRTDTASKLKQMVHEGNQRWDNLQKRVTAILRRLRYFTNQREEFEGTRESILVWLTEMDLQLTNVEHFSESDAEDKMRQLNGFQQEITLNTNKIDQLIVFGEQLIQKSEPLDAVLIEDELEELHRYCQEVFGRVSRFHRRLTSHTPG

[4] = molecular target: T3, GST-tagged human Nesprin-1 (aa 7997–8328) (human, UniProt Q8NF91 7997-8328); experiment: as above; settings: both partners purified
T3 construct: Nesprin-1, human, aa 7997-8328 cloned (the results speak of the domain aa 7998-8315: SR70, SR71 and a disordered domain with a LEWD motif); cloned into the same vector (pGEX6p1) as the Nesprin-2 fragment; also called Nesprin-1-SR70-SR71AD; Nesprin-1 fragment; source: E. coli BL21(DE3)-RIL, purified on glutathione resin (not eluted before the pull-down); not shown: GST, N-terminal, kept
T3 sequence (looked up): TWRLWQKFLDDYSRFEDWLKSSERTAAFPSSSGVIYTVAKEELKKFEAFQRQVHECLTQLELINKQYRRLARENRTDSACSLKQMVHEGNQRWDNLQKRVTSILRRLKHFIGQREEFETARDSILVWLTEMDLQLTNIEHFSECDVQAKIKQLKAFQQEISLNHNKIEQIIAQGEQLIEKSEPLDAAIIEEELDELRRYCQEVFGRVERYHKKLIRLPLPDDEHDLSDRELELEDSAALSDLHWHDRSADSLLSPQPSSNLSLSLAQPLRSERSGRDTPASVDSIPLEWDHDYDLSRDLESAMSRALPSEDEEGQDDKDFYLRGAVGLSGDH

[5] = molecular target: T4, Nesprin-2 fragment of the purified minimal Nesprin-2/BicD2 complex used for SEC-MALS (mouse); experiment: SEC-MALS; purified minimal Nesprin-2/BicD2 complex, GST tag on Nesprin-2; methods in the supplement; settings: both partners purified
T4 chain: T2 sequence (looked up)

Molecule: Full-length, wild-type human BicD2 (from UniProt Q8TD16-2 1-855) (natural protein)
- stoichiometry N (BicD2 per DDBN complex) [1]: 1

- binding result [2]: binds
- binding result [3]: binds
- binding result [4]: binds
B1: His6-tagged human BicD2-CTD (aa 715–804) (domain or fragment, UniProt Q8TD16-2 715-804, looked up)
chain: YENEKAMVTETMMKLRNELKALKEDAATFSSLRAMFATRCDEYITQLDEMQRQLAAAEDEKKTLNSLLRMAIQQKLALTQRLELLELDHE
notes: pET28a vector; source: E. coli LOBSTR BL21(DE3)-RIL, purified (Ni-NTA); not shown: His6, N-terminal, kept

- stoichiometry N [5]: 1 BicD2 per Nesprin-2 (2:2 complex)
B2: BicD2-CTD of the purified minimal Nesprin-2/BicD2 complex used for SEC-MALS (domain or fragment, human, UniProt Q8TD16-2 715-804, looked up)
chain: B1 chain
notes: printed protomer mass 10.9 kDa; also called BicD2 protomer (10.9 kDa)
